# Measured values reported in patent US20200407445A1 (ITEOS THERAPEUTICS, published 2020).
# T1: Mouse TIGIT-Fc (mouse, UniProt P86176 29-148, limits assumed)
# T1 construct: not shown: Fc part
# T1 sequence (looked up): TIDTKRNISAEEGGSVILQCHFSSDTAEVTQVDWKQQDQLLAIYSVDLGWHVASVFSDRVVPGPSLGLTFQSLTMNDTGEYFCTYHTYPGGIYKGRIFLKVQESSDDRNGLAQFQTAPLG
# T2: Human TIGIT-His (human, UniProt Q495A1 22-141, biotinylated in the ForteBio Fab assay)
# T2 construct: bought (Creative Biomart); also called Biotinylated Human TIGIT HIS; TIGIT-His monomer; not shown: His tag
# T2 sequence (looked up): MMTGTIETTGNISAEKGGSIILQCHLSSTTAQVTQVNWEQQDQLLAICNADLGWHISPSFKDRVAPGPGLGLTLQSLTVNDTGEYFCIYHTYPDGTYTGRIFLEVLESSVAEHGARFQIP
# What was measured:
# Experiment in all cases: ForteBio BLI, Fab KD, monovalent
# Mouse TIGIT-Fc = target: T1, Mouse TIGIT-Fc
# Cyno TIGIT-Fc = target: T3, Cyno TIGIT-Fc (cynomolgus, UniProt A0A7N9I9V4 89-209)
# T3 construct: not shown: Fc part
# T3 sequence (A0A7N9I9V4 entry or part of it): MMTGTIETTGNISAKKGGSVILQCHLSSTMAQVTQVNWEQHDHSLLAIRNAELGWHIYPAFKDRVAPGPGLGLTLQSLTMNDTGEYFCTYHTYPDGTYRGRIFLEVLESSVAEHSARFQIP
# Human TIGIT-His = target: T2, Human TIGIT-His
Kd (Mouse TIGIT-Fc) [nM],Kd (Cyno TIGIT-Fc) [nM],Kd (Human TIGIT-His) [nM],binding result (Mouse TIGIT-Fc),binding result (Cyno TIGIT-Fc),Binder
91.8,1.26,0.703,,,"Fab of anti-TIGIT clone 29478 (Fab, V domains shown) VH: EVQLVESGGGVVQPGRSLRLSCAASGFTFESYGMVWVRQAPGKGLEWVASILYDGSNRYYADSVKGRFTVSRDNSKNTLYLQMNSLRAEDTAVYYCARVSYYYDSVELRWAEYFQHWGQGTLVTVSS VL: EIVLTQSPATLSLSPGERATLSCRASQSVSSYLAWYQQKPGQAPRLLIYDASKRATGIPARFSGSGSGTDFTLTISSLEPEDFAVYYCQQVHNFPLTFGGGTKVEIK"
85.5,9.56,0.774,,,"Fab of anti-TIGIT clone 29513 (Fab, V domains shown) VH: QVQLVQSGAEVKKPGSSVKVSCKASGGTFQNYAISWVRQAPGQGLEWMGVIVPIFGTANYAQKFQGRVTVTADESTSTAYMELSSLRSEDTAVYYCARLHLGQKAYYGMDVWGQGTTVTVSS VL: DIQMTQSPSSLSASVGDRVTITCRASQSISSYLNWYQQKPGKAPKLLIYAASSLQSGVPSRFSGSGSGTDFTLTISSLQPEDFATYYCQQRYVFPPTFGGGTKVEIK"
53.6,18.6,1.66,,,"Fab of anti-TIGIT clone 29494 (Fab, V domains shown) VH: QVQLQESGPGLVKPSETLSLTCTVSGGSISSGSYYLAWIRQPPGKGLEWIGSIFRSGSTYYNPSLESRVTISVDTSKNQFSLKLSSVTAADTAVYYCAIEGANFKDFGYVAFDIWGQGTMVTVSS VL: EIVMTQSPATLSVSPGERATLSCRASQSVSSNLAWYQQKPGQAPRLLIYGASTRATGIPARFSGSGSGTEFTLTISSLQSEDFAVYYCQQSPPWPRTFGGGTKVEIK"
25.5,14.5,1.66,,,"Fab of anti-TIGIT clone 29499 (Fab, V domains shown) VH: QLQLQESGPGLVKPSETLSLTCTVSGGSISSSRYYWAWIRQPPGKGLEWIGSIGTSGSTYYNPSLKSRVTISVDTSKNQFSLKLSSVTATDTAVYYCAIEGANFRDFGYVAFDIWGQGTMVTVSS VL: EIVMTQSPATLSVSPGERATLSCRASQSVSSNLAWYQQKPGQAPRLLIYGASTRATGIPARFSGSGSGTEFTLTISSLQSEDFAVYYCQQSPPWPRTFGGGTKVEIK"
18.9,27.9,3.84,,,"Fab of anti-TIGIT clone 29523 (Fab, V domains shown) VH: EVQLVESGGGVVQPGRSLRLSCAASGFTFGSYYMHWVRQAPGKGLEWVAVIWPDGSNKLYADSVKGRFTISRDNSKNTLYLQMNSLRAEDTALYYCAKPVPKSRALDVWGQGTMVTVSS VL: DIQLTQSPSSVSASVGDRVTITCRASQGISSWLAWYQQKPGKAPKLLIYGASSLQSGVPSRFSGSGSGTDFTLTISSLQPEDFATYYCQQAFYLPWTFGGGTKVEIK"
1.95,2.68,1.31,,,"Fab of anti-TIGIT clone 29520 (Fab, V domains shown) VH: QVQLVESGGGLVQPGRSLRLSCAASGFTFRDYAMHWVRQAPGKGLEWVSGITWNSGLIGYADSVKGRFTISRDNAKNSLYLQMNSLRAEDTALYYCAKPVPRLRGLDVWGQGTMVTVSS VL: DIQLTQSPSSVSASVGDRVTITCRASQGISSWLAWYQQKPGKAPKLLIYGASSLQSGVPSRFSGSGSGTDFTLTISSLQPEDFATYYCQQAFYLPWTFGGGTKVEIK"
20.2,17.6,1.33,,,"Fab of anti-TIGIT clone 29527 (Fab, V domains shown) VH: QVQLVESGGGVVQPGRSLRLSCAASGFTFSSSYMHWVRQAPGKGLEWVAVIGADGSNKYYADSVEGRFTISRDNSKNTLYLQMNSLRAEDTALYYCAKPVPRRRGLDVWGQGTMVTVSS VL: DIQLTQSPSSVSASVGDRVTITCRASQGISSWLAWYQQKPGKAPKLLIYGASSLQSGVPSRFSGSGSGTDFTLTISSLQPEDFATYYCQQAFYLPWTFGGGTKVEIK"
,,13.1,no binding,no binding,"Fab of anti-TIGIT clone 26432 (Fab, V domains shown) VH: QVQLVQSGAEVKKPGSSVKVSCKASGGTFSSYAISWVRQAPGQGLEWMGGIIPIFGTANYAQKFQGRVTITADESTSTAYMELSSLRSEDTAVYYCAREAQSYRVPFDIWGQGTMVTVSS VL: EIVMTQSPATLSVSPGERATLSCRASQSVSSNLAWYQQKPGQAPRLLIYGASTRATGIPARFSGSGSGTEFTLTISSLQSEDFAVYYCQQYAIWPPFTFGGGTKVEIK"
